Changes are numbered by the printed parent chain.
B1: huC9Mab-16-VL2 (antibody, V domains shown)
VH: EVQLVESGGGLVKPGGSLRLSCAASGFTFSDYWMNWVRQAPGKGLEWVGEIRSKSKNYATHYEESVRGRFTISRDDSKNTLYLQMNSLKTEDTAVYYCMFFYSPYWGQGTLVTVSS
VL: DVVMTQSPSSLSASVGDRVTITCRSSQSLVHSNGITFLHWYQQKPGKAPKLLIYKVSNRFSGVPSRFSGSGSGTDFTLTISSLQPEDFATYYCSQTTHVPWTFGGGTKVEIK
notes: Humanized IgG made in HEK293-6E cells
B2: huC9Mab16-VL2 pHrodo (antibody, V domains shown)
VH: B1 VH
VL: B1 VL
modifications: pHrodo fluorophore label (sites not given)
notes: also called pHrodo-labeled huC9Mab16-VL2
B3: huC9Mab19-VL2 pHrodo (antibody, V domains shown)
VH: B1 VH with D31N, N35D, K56N, E63A, V66M, R67K, M99A, F101Y
VL: B1 VL with V30L, I35N, V99L
modifications: pHrodo fluorophore label (sites not given)
notes: also called pHrodo-labeled huC9Mab19-VL2
B4: huC9Mab-19-VL2 (antibody, V domains shown)
VH: B1 VH with D31N, N35D, K56N, E63A, V66M, R67K, M99A, F101Y
VL: B1 VL with V30L, I35N, V99L
notes: as for B1
B5: IAb01 (antibody, V domains shown)
VH: EVKVEESGGGLVQPGGSMKLSCVVSGLTFSNFWMTWVRQSPEKGLEWVAEIRLKSNNYATHYAESVKGRFTISRDDSRSSVFLQMNNLRAEDTGIYYCTTDGWFAFWGQGTLVTVSA
VL: QIVLTQSPTIMSASPGEKVTITCSASSSVSYMHWFQQKPGTSPKLWIYSTSNLASGVPARFSGSGSGTSYSLTISRMEAEDAATYYCQQRSSYPFTFGSGTKLEIKR
notes: Murine antibody
B6: IAb02 (antibody, V domains shown)
VH: B5 VH with V23A, V24A, L27F, T28I, T35N, V48I, R78K, F82Y, T99A
VL: DVVMTQTPLSLPVSLGDQASISCRSSQSLVHSNGNTYLQWHLQKPGQSPKFLIYKVSNRFSGVPDRFSGSGSGTDFTLKISRVEAEDLGVYFCSQSTHVPRTFGGGTKLEIKR
notes: Murine antibody
B7: C9Mab-16 (antibody, V domains shown)
VH: EVKLEESGGGLVLPGGSMKLSCVASGFTFSDYWMNWVRQSPEKGLEWVAEIRSKSKNYATHYEESVRGRCTISRDDSKSSVYLQMNNLRAEDTGIYFCMFFYSPYWGQGTLVTVSA
VL: B6 VL with N35I, Y37F, Q39H, H41Y, F51L, S96T, R101W
notes: Murine parental antibody from hybridoma; also called C9M16; clone 16
B8: C9Mab-19 (antibody, V domains shown)
VH: EVKLEESGGGLVQPGGSMKLSCVASGFTFSNYWMDWVRQSPEKGLEWVAEIRSKSNNYATHYAESMKGRFTISRDDSKSSVYLQMINLRTEDTGIYYCAFYYSPYWGQGTLVTVSA
VL: B6 VL with V30L, Y37F, Q39H, H41Y, F51L, I80V, S96T, V99L, R101W
notes: Murine parental antibody from hybridoma; also called C9M19; clone 19
B9: SRB1 (antibody, V domains shown)
VH: EVQLVESGGGLVKPGGSLRLSCAASGFTFSKFWMNWVRQAPGKGLEWVGEIRLKSNNYATHYAESVKGRFTISRDDSKNTLYLQMNSLKTEDTAVYYCTSDGWFAYWGQGTLVTVSS
VL: DVQMTQSPSSLSASVGDRVTITCRSSQSLVHSNGNTYLNWYQQKPGKAPKLLIYKVSNRFSGVPSRFSGSGSGTDFTLTISSLQPEDFATYYCSQSTHFPRTFGGGTKVEIKR
notes: Detected with anti-human Fc, so it has a human Fc; also called humanised version of the antibody 92R; positive control
B10: SRB1 pHrodo (antibody, V domains shown)
VH: B9 VH
VL: B9 VL
modifications: pHrodo fluorophore label (sites not given)
notes: also called pHrodo-labeled SRB1

Columns and labels:
[1] = biological target: T1, CCR9 N-terminal peptide 1 (TPTDFTSPIPNMADDYGSESTSS) (human, biotinylated in the ELISA of Example 2 (site not stated)); experiment: ELISA, plate coated with biotinylated CCR9 N-terminal peptide 1, anti-human Fc detection, n=2
T1 construct: Biotin is stated for the ELISA; also called N-terminal 1; biotinylated peptide from the N-terminal region of huCCR9
T1 peptide: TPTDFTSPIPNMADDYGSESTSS

[2] = biological target: T2, human CCR9 (C-C chemokine receptor type 9) (human, UniProt P51686 1-369); experiment: flow cytometry on CCR9-expressing MOLT-4 cells, PE anti-human Fc, mean ± SD, n=3
T2 construct: also called huCCR9; hCCR9
T2 sequence: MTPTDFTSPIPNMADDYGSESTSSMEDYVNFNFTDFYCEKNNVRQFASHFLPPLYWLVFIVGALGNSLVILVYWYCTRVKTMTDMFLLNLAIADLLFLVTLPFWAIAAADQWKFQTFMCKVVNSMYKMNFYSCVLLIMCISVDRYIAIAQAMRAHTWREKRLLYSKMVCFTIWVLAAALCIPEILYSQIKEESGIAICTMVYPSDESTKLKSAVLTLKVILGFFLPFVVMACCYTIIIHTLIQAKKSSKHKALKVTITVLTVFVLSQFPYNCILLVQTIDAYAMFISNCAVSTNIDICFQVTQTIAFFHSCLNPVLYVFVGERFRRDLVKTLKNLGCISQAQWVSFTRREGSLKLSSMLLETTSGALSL

[3] = biological target: T2, human CCR9 (C-C chemokine receptor type …); experiment: flow cytometry on MOLT-4 cells, unlabeled antibody, n=1
[4] = biological target: T3, N-terminal 6 (SPIPNMADDYG) (human); experiment: peptide inhibition: 1 µg/mL antibody pre-incubated with 100 µg/mL peptide, then binding to MOLT-4 cells by flow cytometry
T3 construct: also called peptide N-terminal 6
T3 peptide: SPIPNMADDYG

[5] = biological target: T2, human CCR9 (C-C chemokine receptor type …); experiment: flow cytometry on MOLT-4 cells; antibody incubated 4 days at 40°C
[6] = biological target: T2, human CCR9 (C-C chemokine receptor type …); experiment: cell-based or functional assay
[7] = biological target: T2, human CCR9 (C-C chemokine receptor type …); experiment: flow cytometry on MOLT-4 cells; antibody kept 4 days at 4°C (control)
[8] = biological target: T2, human CCR9 (C-C chemokine receptor type …); experiment: flow cytometry on huCCR9-expressing HEK293 cells, PE anti-human Fc, mean ± SD, n=3
[9] = biological target: T2, human CCR9 (C-C chemokine receptor type …); experiment: flow cytometry on MOLT-4 cells; antibody incubated 4 days at 23°C
[10] = biological target: T2, human CCR9 (C-C chemokine receptor type …); experiment: flow cytometry on MOLT-4 cells, pHrodo-labeled antibody, n=1
[11] = biological target: T2, human CCR9 (C-C chemokine receptor type …); experiment: screen of murine hybridoma antibodies for affinity to CCR9 (ELISA, then flow cytometry); format not detailed
hCCR9 peptide M13A-A14G [12] = biological target: T4, hCCR9 peptide M13A-A14G (human); experiment: 2 x Ala-scan with substituted hCCR9 peptides (Fig. 9A)
T4 peptide: TDFTSPIPNAGDDYGSEST

hCCR9 peptide P11A-N12A [13] = biological target: T5, hCCR9 peptide P11A-N12A (human); experiment: as above
T5 peptide: TDFTSPIAAMADDYGSEST

hCCR9 peptide D16A-Y17A [14] = biological target: T6, hCCR9 peptide D16A-Y17A (human); experiment: as above
T6 peptide: TDFTSPIPNMADAAGSEST

hCCR9 peptide N12A-M13A [15] = biological target: T7, hCCR9 peptide N12A-M13A (human); experiment: as above
T7 peptide: TDFTSPIPAAADDYGSEST

hCCR9 peptide D15A-D16A [16] = biological target: T8, hCCR9 peptide D15A-D16A (human); experiment: as above
T8 peptide: TDFTSPIPNMAAAYGSEST

hCCR9 peptide M13A-A14G [17] = biological target: T4, hCCR9 peptide M13A-A14G; experiment: 2 x Ala-scan with substituted hCCR9 peptides (Fig. 9B)
hCCR9 peptide P11A-N12A [18] = biological target: T5, hCCR9 peptide P11A-N12A; experiment: as above
hCCR9 peptide D16A-Y17A [19] = biological target: T6, hCCR9 peptide D16A-Y17A; experiment: as above
hCCR9 peptide N12A-M13A [20] = biological target: T7, hCCR9 peptide N12A-M13A; experiment: as above
hCCR9 peptide D15A-D16A [21] = biological target: T8, hCCR9 peptide D15A-D16A; experiment: as above

| Binder | EC50 [1] | EC50 [2] | EC50 [3] | EC50 [5] | EC50 of cytotoxicity (ADCC, specific lysis of CFSE-stained MOLT-4 cells), PBMC batch HN#1 [6] | EC50 of cytotoxicity (ADCC, specific lysis of CFSE-stained MOLT-4 cells), PBMC batch HN#2 [6] | EC50 [7] | EC50 [8] | EC50 [9] | EC50 [10] | also measured |
| --- | --- | --- | --- | --- | --- | --- | --- | --- | --- | --- | --- |
| B1 | 0.546 nM | 0.24 nM | 0.27 nM | 0.25 nM | 0.005 nM | 0.01 nM | 0.4 nM | 0.1 nM | 0.4 nM | – | binding result [4]: binds |
| B2 | – | – | – | – | – | – | – | – | – | 0.51 nM | – |
| B3 | – | – | – | – | – | – | – | – | – | 2.05 nM | – |
| B4 | 14.1 nM | 0.59 nM | 0.6 nM | 2 nM | 0.23 nM | 0.06 nM | 1.86 nM | 0.92 nM | 2.04 nM | – | binding result [4]: binds |
| B5 | – | – | – | – | – | – | – | – | – | – | binding result [11]: binds |
| B6 | – | – | – | – | – | – | – | – | – | – | binding result [11]: binds |
| B7 | – | – | – | – | – | – | – | – | – | – | binding result (hCCR9 peptide M13A-A14G [12]): no binding; binding result (hCCR9 peptide P11A-N12A [13]): no binding; binding result (hCCR9 peptide D16A-Y17A [14]): no binding; binding result (hCCR9 peptide N12A-M13A [15]): no binding; binding result (hCCR9 peptide D15A-D16A [16]): no binding |
| B8 | – | – | – | – | – | – | – | – | – | – | binding result (hCCR9 peptide M13A-A14G [17]): no binding; binding result (hCCR9 peptide P11A-N12A [18]): no binding; binding result (hCCR9 peptide D16A-Y17A [19]): no binding; binding result (hCCR9 peptide N12A-M13A [20]): no binding; binding result (hCCR9 peptide D15A-D16A [21]): no binding |
| B9 | 19.2 nM | 0.04 nM | 0.07 nM | 0.05 nM | 0.0008 nM | 0.003 nM | 0.05 nM | 0.04 nM | 0.02 nM | – | – |
| B10 | – | – | – | – | – | – | – | – | – | 0.08 nM | – |

From patent publication EP4578874A1 (SunRock Biopharma S.L., dated 2025)
